According to patent US20130039933A1 (UNIVERSITY OF MIAMI, published 2013):

B1: Full length DAD1 (defender against apoptotic cell death) fused to the GAL4 activation domain (other, human, UniProt P61803 1-113, looked up, not shown: large carriers)
chain: MSASVVSVISRFLEEYLSSTPQRLKLLDAYLLYILLTGALQFGYCLLVGTFPFNSFLSGFISCVGSFILAVCLRIQINPQNKADFQGISPERAFADFLFASTILHLVVMNFVG
notes: Yeast two-hybrid prey; also called DAD I
B2: control vector (AD) (other, yeast, UniProt P04386 768-881, looked up)
chain: ANFNQSGNIADSSLSFTFTNSSNGPNLITTQTNSQALSQPIASSNVHDNFMNNEITASKIDDGNNSKPLSPGWTDQTAYNAFGITTGMFNTTTMDDVYNYLFDDEDTPPNPKKE
notes: Yeast two-hybrid negative control

Experiments:
[1] = target: T1, BD-hSTING-C (carboxyl region of STING, amino acids 173-379, fused to the binding domain of yeast GAL4) (yeast; human, UniProt P04386 1-147); experiment: yeast two-hybrid screen
T1 construct: Yeast two-hybrid bait; also called pGBK-T7-hSTING-C; pGBKT7-STING C-terminal

[2] = target: T1, BD-hSTING-C (carboxyl region of STING, …); experiment: yeast two-hybrid, high stringency plates (-Trp, -Leu, -Ade, -His)

Row | Binder | binding result [1] | binding result [2]
1 | B1 | binds | –
2 | B2 | – | no binding
